Several values for one entry are separate records, joined by “and”; a condition that tells them apart may be missing. Equal values may be shown once.
Molecular target: the molecule itself
Assay: cross-linking; A549 cells washed with PBS pH 8.0 and treated with BS3 for 1 h at room temperature before lysis in loading buffer; dimers and tetramers by immunoblot; cells with eEF2K depletion, overexpression or A484954

B1: FLAG-PKM2 T129A (enzyme)
chain: not shown
notes: human PKM2 from the vector pWZL-FLAG-PKM2 (Addgene #20585) with the point mutation T129A made by PCR mutagenesis; source: A549 cells expressing it, in cells (cross-linked with BS3 before lysis)
  stoichiometry N: 4 and 2

Source: article PMC7020344, “The eEF2 kinase-induced STAT3 inactivation inhibits lung cancer cell proliferation by phosphorylation of PKM2” (Cell Communication and Signaling : CCS, 2020)
